From patent publication US20240150462A1 (UNIVERSITY HEALTH NETWORK, published 2024)

Target: T1, Recombinant human Fc-tagged extracellular domain of LILRB2 (human, UniProt Q8N423 22-460)
T1 construct: extracellular domain; Bought from R&D Systems; also called LILRB2-Fc; not shown: Fc tag
Assay: SPR, Biacore X100; LILRB2-Fc amine-coupled to CM5 chip, antibody injected at 3.7-300 nM
Procedure: Dissociation constants (Kd) for mouse anti-human LILRB1 and LIRB2 antibodies were determined using a Biacore X100 surface plasmon resonance instrument (Cytivia). Recombinant human Fc-tagged extracellular domains of LILRB1 or LILRB2 (LILRB1-Fc or LILRB2-Fc; R&D Systems) were immobilized on a Biacore CM5 biosensor chip by amine coupling at a density of 40-50 relative units (RU). Purified mouse monoclonal antibodies were injected over the biosensor in a concentration series of 3.7, 11, 33, 100, and 300 nM in HBS-EP buffer (10 mM HEPS pH 7.4, […], 3 mM EDTA, 0.005% v/v Surfactant P20) at a flow rate of 50 μL/min. Regeneration of the chip was achieved by a 30 s injection of 10 mM glycine-HCl, pH 1.7. Affinity parameters were determined by fitting response data using the accompanying Biacore X100 analysis software.

T1 sequence (Q8N423 22-460): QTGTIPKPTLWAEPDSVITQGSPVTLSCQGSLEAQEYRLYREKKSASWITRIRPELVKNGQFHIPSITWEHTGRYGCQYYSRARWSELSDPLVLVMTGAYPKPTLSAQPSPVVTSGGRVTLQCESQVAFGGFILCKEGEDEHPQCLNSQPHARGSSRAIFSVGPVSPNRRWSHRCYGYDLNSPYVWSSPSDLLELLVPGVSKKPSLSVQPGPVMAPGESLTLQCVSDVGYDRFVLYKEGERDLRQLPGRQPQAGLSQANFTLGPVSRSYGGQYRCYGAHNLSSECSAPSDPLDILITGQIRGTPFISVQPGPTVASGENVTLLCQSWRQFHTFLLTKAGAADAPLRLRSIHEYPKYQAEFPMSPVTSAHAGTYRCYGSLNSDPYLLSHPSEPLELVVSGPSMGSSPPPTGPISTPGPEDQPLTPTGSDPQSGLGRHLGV

B1: 8D2 (antibody, V domains shown)
VH: QIQLVQSGPELKKPGETVKISCKASGYTFTTYGMSWVKQAPGKGLKWMGWINTYSGAPAYVDDFKGRFAFSLETSASTAYLQINNLKNEDTATYFCARHFYSGSSYWYFDVWGTGTTVTVSS
VL: DIQMTQSPASLSVSVGETVTITCRASENIYSNLAWYQQKQGKSPQLLVYAATNLADGVPSRFSGSGSGTQYSLKINSLQSEDFGSYYCQHFWGTPRTFGGGTKLEIKR
notes: Entries are printed with leader peptide and part of the mouse constant region; also called LILRB2 antibody 8D2
Question: Which “-log(Kd)” value does the source give for B1 here?
Answer: Its value is 8.43.

B2: 6B3 (antibody, V domains shown)
VH: EVQLQESGPELLKPGASMKISCKASGYTFTDDYMNWVKQSHGKSLEWIGDINPNNGGTSYNQKFKGKATLTVDKSSSTAYMELRSLTSEDSAVYYCARGSPWFAYWGQGTLVTVSA
VL: DIQMTQTTSSLSASLGDRVTINCRASQDIRNYLSWYQQKPDGTVKLLIYYTSRLHSGVPSRFSGSGSGRDYSLTISNLEQEDIATYFCQQSNTLPWTFGGGTKLEITR
notes: Entries are printed with leader peptide and part of the mouse constant region (heavy entry ends within CH1); also called LILRB2 antibody 6B3
Question: With B2 as the binder, how does the “-log(Kd)” value read?
Answer: Its value is 9.02.

B3: 10A8 (antibody, V domains shown)
VH: EVQLVESGGDFVKPGGSLKLSCAASGFTFSSYDMSWVRQTPDKRLEWVATIIRGDSYTYYLDSVKGRFTISRDNAKNTLYLQMSSLKSEDTAMYYCARPSYGNSFDYWGQGTTLTVSS
VL: DIVMTQSHKFMSTSIGDRVSITCKASQDVNNAVAWYQQKPGQSPKLLIYAASYRYTGVPDRFTGSGSGTDFTFTISSVQAEDLAVYHCQQHYGIPWTFGGGTKLEIKR
notes: Entries are printed with leader peptide and part of the mouse constant region; also called LILRB2 antibody 10A8
Question: B3 was tested. Which “-log(Kd)” value did it give?
Answer: The value was 8.77.

B4: 10D4 (antibody, V domains shown)
VH: QVQLQQSDAELVKPGASVKISCKVSGYTFSDHTFHWMKQRPEQGLEWIGYFYPRDGRSKYNEKFRDKATLTADKSSSTAYMQLNSLTSEDSAVYFCTCDGFDYWGQGTTLTVSS
VL: DIKMTQSPSSMHASLGERVTITCKASQDINSYLSWFQQKPGKSPKTLIYHADRLVDGVPSRFSGSGSGQDYSLTISSLEYEDMGIYYCLQYDEFPYTFGGGTKLEIKR
notes: Entries are printed with leader peptide and part of the mouse constant region; also called LILRB2 antibody 10D4
Question: B4 was tested. Which “-log(Kd)” value did it give?
Answer: The value was 7.82.
